# In patent US7186459B2, “Liposome coated with polyhydroxyalkanoate and production method thereof” (priority 2001, dated 2007):
# B1: YN2-C2: Purified PHA synthase derived from Pseudomonas cichorii YN2, from plasmid pYN2-C2 (SEQ ID NO: 4), 61.5 kDa (protein)
# chain: MRDKPARESLPTPAKFINAQSAITGLRGRDLVSTLRSVAAHGLRHPVHTARHALKLGGQLGRVLLGDTLHPTNPQDRRFDDPAWSLNPFYRRSLQAYLSWQKQVKSWIDESNMSPDDRARAHFAFALLNDAVSPSNSLLNPLAIKEIFNSGGNSLVRGIGHLVDDLLHNDGLPRQVTRHAFEVGKTVATTTGAVVFRNELLELIQYKPMSEKQYSKPLLVVPPQINKYYIFDLSPHNSFVQFALKNGLQTFVISWRNPDVRHREWGLSTYVEAVEEAMNVCRAITGAREVNLMGACAGGLTIAALQGHLQAKRQLRRVSSATYLVSLLDSQLDSPATLFADEQTLEAAKRRSYQKGVLEGRDMAKVFAWMRPNDLIWSYFVNNYLMGKEPPAFDILYWNNDNTRLPAALHGDLLDFFKHNPLSHPGGLEVCGTPIDLQKVTVDSFSVAGINDHITPWDAVYRSTLLLGGERRFVLANSGHVQSILNPPNNPKANYLEGAKLSSDPRAWYYDAKPVDGSWWTQWLGWIQERSGAQKETHMALGNQNYPPMEAAPGTYVRVR
# modifications: Pseudomonas cichorii YN2 ; FERM BP-7375
# B2: YN2-C1: Purified PHA synthase derived from Pseudomonas cichorii YN2, from plasmid pYN2-C1 (SEQ ID NO: 2), 60.8 kDa (protein)
# chain: MSNKSNDELKYQASENTLGLNPVVGLRGKDLLASARMVLRQAIKQPVHSVKHVAHFGLELKNVLLGKSGLQPTSDDRRFADPAWSQNPLYKRYLQTYLAWRKELHDWIDESNLAPKDVARGHFVINLMTEAMAPTNTAANPAAVKRFFETGGKSLLDGLSHLAKDLVHNGGMPSQVNMGAFEVGKSLGVTEGAVVFRNDVLELIQYKPTTEQVYERPLLVVPPQINKFYVFDLSPDKSLARFCLRNNVQTFIVSWRNPTKEQREWGLSTYIEALKEAVDVVTAITGSKDVNMLGACSGGITCTALLGHYAAIGENKVNALTLLVSVLDTTLDSDVALFVNEQTLEAAKRHSYQAGVLEGRDMAKVFAWMRPNDLIWNYWVNNYLLGNEPPVFDILFWNNDTTRLPAAFHGDLIELFKNNPLIRPNALEVCGTPIDLKQVTADIFSLAGTNDHITPWKSCYKSAQLFGGNVEFVLSSSGHIQSILNPPGNPKSRYMTSTEVAENADEWQANATKHTDSWWLHWQAWQAQRSGELKKSPTKLGSKAYPAGEAAPGTYVHER
# modifications: Pseudomonas cichorii YN2 ; FERM BP-7375
# System: PHA synthesizing enzyme
# Experiment: Activity of purified PHA synthesizing enzyme (released CoA coloured with 5,5'-dithiobis-(2-nitrobenzoic acid), absorbance at 412 nm)
# Assay type: biochemical, Pseudomonas cichorii YN2
# Settings: for Activity: 1 U = amount of enzyme releasing 1 μmol CoA per minute, substrate 3-hydroxyoctanoyl CoA, 30° C.; for Specific Activity: protein by Micro BCA
# From the text: A various kinds of reported methods may be used for measuring activity of the PHA synthesizing enzyme, and for example, the activity may be measured by the following method in which as a measurement principle, CoA released in the process through which 3-hydroxyacyl CoA is polymerized under the catalytic action of the PHA synthesizing enzyme to form PHA is colored with 5,5′-dithiobis-(2-nitrobenzoic acid) to carry out measurements. Reagent 1: bovine serum albumin (manufactured by Sigma Co., Ltd.) is dissolved in a 0.1 M Tris hydrochloric buffer (pH 8.0) in the concentration of 3.0 mg/ml, Reagent 2: 3-hydroxyoctanoyl CoA is dissolved in a 0.1 M Tris hydrochloric buffer (pH 8.0) in the concentration of 3.0 mM, Reagent 3: trichloroacetic acid is dissolved in a 0.1 M Tris hydrochloric buffer (pH 8.0) in the concentration of 10 mg/ml, and Reagent 4: 5,5′-dithiobis-(2-nitrobenzoic acid) is dissolved in a 0.1 M Tris hydrochloric buffer (pH 8.0) in the concentration of 2.0 mM. First reaction (PHA synthesis reaction): 100 μl of Reagent 1 is added in 100 μl of sample (enzyme) solution and mixed together, and is pre-incubated at 30° C. for a minute. 100 μl of Reagent 2 is added thereto and mixed together, and is incubated at 30° C. for 1 to 30 minutes, followed by adding thereto Reagent 3 to stop the reaction. Second reaction (reaction of coloring free CoA): the first reaction solution of which reaction has been stopped is subjected to centrifugation (15,000×g, 10 minutes), and 500 μl of Reagent 4 is added in 500 μl of supernatant liquid of this solution, and is incubated at 30° C. for 10 minutes, followed by measuring an absorbance at 412 nm. Calculation of enzyme activity: the amount of enzyme for releasing 1 μmol of CoA per minute is defined as one unit (U).
# The activity of each purified enzyme was measured by the aforesaid method. Also, the concentrations of proteins in the sample were measured by the Micro BCA protein quantification reagent kit (Pierce Chemical Co., Ltd.).
Molecule,Activity [U/mL],Specific Activity [U/mg Protein]
B1,1.5,3.6
B2,2.1,4.1
